Measured values reported in patent publication US20190083615A1.

Molecular target: cynomolgous monkey LAG3 expressed on cells (cynomolgous monkey)
Assay: cell based KinExA, BaF/3 cells transfected with cynomolgus LAG3 (n=2)

Sequence of cynomolgous monkey LAG3 expressed on cells (cynomolgous monkey) (P18627 other isoform, or with tags, fused parts or gaps limits assumed): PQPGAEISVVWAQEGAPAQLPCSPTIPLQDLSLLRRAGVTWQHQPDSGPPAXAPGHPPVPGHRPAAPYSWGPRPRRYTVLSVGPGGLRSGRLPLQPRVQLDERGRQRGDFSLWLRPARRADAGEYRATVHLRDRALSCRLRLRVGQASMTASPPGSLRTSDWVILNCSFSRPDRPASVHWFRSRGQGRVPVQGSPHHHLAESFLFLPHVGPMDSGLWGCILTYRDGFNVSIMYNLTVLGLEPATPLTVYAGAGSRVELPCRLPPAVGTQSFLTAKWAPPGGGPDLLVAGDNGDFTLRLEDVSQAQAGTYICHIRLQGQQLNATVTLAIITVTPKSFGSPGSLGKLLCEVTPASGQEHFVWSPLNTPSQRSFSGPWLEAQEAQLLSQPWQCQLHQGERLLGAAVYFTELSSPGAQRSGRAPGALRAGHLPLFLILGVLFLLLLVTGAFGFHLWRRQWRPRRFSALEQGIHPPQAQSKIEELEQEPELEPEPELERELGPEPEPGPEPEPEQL

Kd: 0.011 nM
B1: 22D2 chimera: chimeric antibody [LAG3_H] mAb (LB145.22D2.E1.D1 (VH0/VL0) Geneart) IgG4 S228P/kappa (PX) (antibody, V domains shown)
VH: EVLLLQSGPELVKPGTSVKIPCKASGYTFTDYNVDWVKQRHGKGLEWIGDINPNNGGTIYSQKFKGKATLTVDKSSSTAFMELRSLTSEDTAVYFCARNYRWFGAMDHWGQGTSVTVSS
VL: DIVLTQSPASLAVSPGQRATISCKASQSLDYEGDSDMNWYQQKPGQPPRLLISGASNLESGIPARFSGSGSGTDFTVNIHPVEEEDAATYYCQQSTEDPRTFGGGTKLEIK
